Assay [1] concerns the target T1, Rhizomucor miehei lipase (RmL) mature protein (Rhizomucor miehei, UniProt P19515 95-363).
T1 construct: Expressed in Aspergillus oryzae ToC1512 from the gene with its prepropeptide; The mature part is the same in all RMLPP variants; also called RmL WT; mature protein of the lipase
T1 sequence: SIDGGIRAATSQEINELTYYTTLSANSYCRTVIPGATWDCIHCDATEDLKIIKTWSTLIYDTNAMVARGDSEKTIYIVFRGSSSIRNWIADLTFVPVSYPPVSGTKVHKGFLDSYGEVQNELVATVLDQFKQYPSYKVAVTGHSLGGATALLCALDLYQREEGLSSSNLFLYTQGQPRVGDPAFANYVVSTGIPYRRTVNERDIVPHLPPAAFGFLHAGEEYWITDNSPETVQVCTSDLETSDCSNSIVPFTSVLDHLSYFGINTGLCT
In words: native PAGE, column HMW band (taken by the filing as lipase associated with propeptide). As for the experimental part: (§1) The native PAGE was casted by first pouring the Resolving gel (4.0 mL 30% Acrylamide (Acrylamide-Bis-acrylamide solution); 2.5 mL 1.5M Tris (pH8.8); 0.1 mL 10% Ammonium per sulphate (APS); 0.004 mL TEMED; 3.3 mL water), followed by overlaying with butanol-water and allowing to polymerize for 30-45 minutes. The butanol-water was washed off and then the stacking gel (1.7 mL 30% Acrylamide (Acrylamide-Bis-acrylamide solution); 1.25 mL 1.5M Tris (pH6.8); 0.1 mL 10% Ammonium per sulphate (APS); 0.01 mL TEMED; 6.8 mL water), was poured over the polymerized resolving gel, immediately followed by insertion of the comb. This was allowed to polymerize for approx. 15 minutes. The protein sample (culture supernatant) was mixed with loading dye (5× composition (2 mL): 0.62 mL 1M Tris pH6.8; 0.1 mL 1% Bromophenol blue; 1.0 mL Glycerol; 0.28 mL Water) and loaded in to the wells of the native PAGE. The gel was run in SDS-free electrophoresis buffer (3.0 g Tris base; 14.4 g Glycine; water up to 1 L) at constant current of 25 mA.

The target in assay [2] is T1, Rhizomucor miehei lipase (RmL) mature …. Kind of assay: native PAGE of culture supernatant; HMW band, taken by the filing as lipase associated with propeptide. As for the experimental part:
as §1

These results are taken from US20170137795A1 (NOVOZYMES A S, published 2017).

B1: propeptide of RmL (wild type) (peptide)
peptide: VPIKRQSNSTVDSLPPLIPSRTSAPSSSPSTTDPEAPAMSRNGPLPSDVETKYGMALNATSYPDSVVQAM
notes: also called RmL WT propeptide
With B1, the binding result in assay [1] is listed as “binds”.

B2: propeptide of RMLPP0006 (N-63Q N-13Q) (peptide)
peptide: VPIKRQSQSTVDSLPPLIPSRTSAPSSSPSTTDPEAPAMSRNGPLPSDVETKYGMALQATSYPDSVVQAM
In the case of B2, in assay [2], the binding result is “no binding”.
